Target: human platelets (CD61 APC-positive gate P1)
Test: flow cytometry on diluted human whole blood, platelets gated as CD61 APC-positive (P1), PE goat anti-human IgG Fc secondary [panel hIgG4 iso : P1]

hIgG4-isotype control (antibody)
V2R (% of CD61-positive P1 events right of the PE gate): 0.11%

— patent publication US20230312709A1
